Experimental findings from US20230256092A1, “COMBINED USE OF ANTI-CCR8 ANTIBODY AND CHEMOTHERAPEUTIC AGENT” (Shionogi & Co., Ltd., priority 2020, published 2023) are described below.

Where a chain is given by its changes, count along the chain named. In names and notes the source's numbering stands.

First the molecules themselves.
B1: h10A11 (IGKV4-1/IGHV3-73 T31A) (antibody, name in Kabat numbering, V domains shown)
VH: EVQLVESGGGLVQPGGSLKLSCAASGFAFNAYALYWVRQASGKGLEWVGRIRSKSNNYATYYADSVKDRFTISRDDSKNTAYLQMNSLKTEDTAVYYCTRARFYYSDYGYAMDYWGQGTLVTVSS
VL: DIVMTQSPDSLAVSLGERATINCRSSKSLLHSNGNTYLYWYQQKPGQPPKLLIYRMSNLASGVPDRFSGSGSGTDFTLTISSLQAEDVAVYYCMQHLEYPLTFGQGTKLEIKR
B2: h10A11 (IGKV4-1/IGHV3-73 K52bR) (antibody, name in Kabat numbering, V domains shown)
VH: B1 VH with A31T, K54R
VL: B1 VL
B3: h10A11 (IGKV4-1/IGHV3-73 A100eV) (antibody, name in Kabat numbering, V domains shown)
VH: B1 VH with A31T, A111V
VL: B1 VL
B4: h10A11 (IGKV4-1/IGHV3-73 G100cA) (antibody, name in Kabat numbering, V domains shown)
VH: B1 VH with A31T, G109A
VL: B1 VL
B5: h10A11 (IGKV4-1/IGHV3-73 Y100bF) (antibody, name in Kabat numbering, V domains shown)
VH: B1 VH with A31T, Y108F
VL: B1 VL
B6: h10A11 (IGKV4-1/IGHV3-73 D61E) (antibody, name in Kabat numbering, V domains shown)
VH: B1 VH with A31T, D64E
VL: B1 VL
B7: h10A11 (IGKV4-1/IGHV3-73 A33V) (antibody, name in Kabat numbering, V domains shown)
VH: B1 VH with A31T, A33V
VL: B1 VL
B8: h10A11 (IGKV4-1/IGHV3-73 L34I) (antibody, name in Kabat numbering, V domains shown)
VH: B1 VH with A31T, L34I
VL: B1 VL
B9: h10A11 (IGKV4-1/IGHV3-73 Y32F) (antibody, name in Kabat numbering, V domains shown)
VH: B1 VH with A31T, Y32F
VL: B1 VL
B10: h10A11 (IGKV4-1/IGHV3-73 Y58F) (antibody, name in Kabat numbering, V domains shown)
VH: B1 VH with A31T, Y61F
VL: B1 VL
B11: h10A11 (IGKV4-1/IGHV3-73 M100fL) (antibody, name in Kabat numbering, V domains shown)
VH: B1 VH with A31T, M112L
VL: B1 VL
B12: h10A11 (IGKV4-1/IGHV3-73 V63L) (antibody, name in Kabat numbering, V domains shown)
VH: B1 VH with A31T, V66L
VL: B1 VL
B13: h10A11 (IGKV4-1/IGHV3-73 R96K) (antibody, name in Kabat numbering, V domains shown)
VH: B1 VH with A31T, R102K
VL: B1 VL
B14: h10A11 (IGKV4-1/IGHV3-73 Y99F) (antibody, name in Kabat numbering, V domains shown)
VH: B1 VH with A31T, Y105F
VL: B1 VL
B15: h10A11 (IGKV4-1/IGHV3-73 S100T) (antibody, name in Kabat numbering, V domains shown)
VH: B1 VH with A31T, S106T
VL: B1 VL
B16: h10A11 (IGKV4-1/IGHV3-73 Y55F) (antibody, name in Kabat numbering, V domains shown)
VH: B1 VH with A31T, Y58F
VL: B1 VL
B17: h10A11 (IGKV4-1/IGHV3-73 Y35F) (antibody, name in Kabat numbering, V domains shown)
VH: B1 VH with A31T, Y35F
VL: B1 VL
B18: h10A11 (IGKV4-1/IGHV3-73 Y102F) (antibody, name in Kabat numbering, V domains shown)
VH: B1 VH with A31T, Y114F
VL: B1 VL
B19: h10A11 (IGKV4-1/IGHV3-73 N53Q) (antibody, name in Kabat numbering, V domains shown)
VH: B1 VH with A31T, N56Q
VL: B1 VL
B20: h10A11 (IGKV4-1/IGHV3-73 S52cT) (antibody, name in Kabat numbering, V domains shown)
VH: B1 VH with A31T, S55T
VL: B1 VL
B21: h10A11 (IGKV4-1/IGHV3-73 R52K) (antibody, name in Kabat numbering, V domains shown)
VH: B1 VH with A31T, R52K
VL: B1 VL
B22: h10A11 (IGKV4-1/IGHV3-73 F97L) (antibody, name in Kabat numbering, V domains shown)
VH: B1 VH with A31T, F103L
VL: B1 VL
B23: h10A11 (IGKV4-1/IGHV3-73 A60V) (antibody, name in Kabat numbering, V domains shown)
VH: B1 VH with A31T, A63V
VL: B1 VL
B24: h10A11 (IGKV4-1/IGHV3-73 Y98F) (antibody, name in Kabat numbering, V domains shown)
VH: B1 VH with A31T, Y104F
VL: B1 VL
B25: h10A11 (IGKV4-1/IGHV3-73 D100aE) (antibody, name in Kabat numbering, V domains shown)
VH: B1 VH with A31T, D107E
VL: B1 VL
B26: h10A11 (IGKV4-1/IGHV3-73 R50K) (antibody, name in Kabat numbering, V domains shown)
VH: B1 VH with A31T, R50K
VL: B1 VL
B27: h10A11 (IGKV4-1/IGHV3-73 D65E) (antibody, name in Kabat numbering, V domains shown)
VH: B1 VH with A31T, D68E
VL: B1 VL
B28: h10A11 (IGKV4-1/IGHV3-73 Y59F) (antibody, name in Kabat numbering, V domains shown)
VH: B1 VH with A31T, Y62F
VL: B1 VL
B29: h10A11 (IGKV4-1/IGHV3-73 D101E) (antibody, name in Kabat numbering, V domains shown)
VH: B1 VH with A31T, D113E
VL: B1 VL
B30: h10A11 (IGKV4-1/IGHV3-73 S62T) (antibody, name in Kabat numbering, V domains shown)
VH: B1 VH with A31T, S65T
VL: B1 VL
B31: h10A11 (IGKV4-1/IGHV3-73 Y100dF) (antibody, name in Kabat numbering, V domains shown)
VH: B1 VH with A31T, Y110F
VL: B1 VL
B32: h10A11 (IGKV4-1/IGHV3-73 S52aT) (antibody, name in Kabat numbering, V domains shown)
VH: B1 VH with A31T, S53T
VL: B1 VL
B33: h10A11 (IGKV4-1/IGHV3-73 A56V) (antibody, name in Kabat numbering, V domains shown)
VH: B1 VH with A31T, A59V
VL: B1 VL
B34: h10A11 (IGKV4-1/IGHV3-73 K64R) (antibody, name in Kabat numbering, V domains shown)
VH: B1 VH with A31T, K67R
VL: B1 VL
B35: h10A11 (IGKV4-1/IGHV3-73 I51L) (antibody, name in Kabat numbering, V domains shown)
VH: B1 VH with A31T, I51L
VL: B1 VL
B36: h10A11 (IGKV4-1/IGHV3-73 T57S) (antibody, name in Kabat numbering, V domains shown)
VH: B1 VH with A31T, T60S
VL: B1 VL

In the experiment the target is human CCR8 (human) (UniProt P51685). As to the kind of experiment: cell-based or functional assay.
In the case of B1, the IC50 ratio (WT IC50/mutant IC50) was 0.17.

B2: the IC50 ratio (WT IC50/mutant IC50) is 0.47.

In the case of B3, the IC50 ratio (WT IC50/mutant IC50) is 0.49.

Turning to B4, the IC50 ratio (WT IC50/mutant IC50) is 0.07.

Take B5: the IC50 ratio (WT IC50/mutant IC50) was determined as 0.75.

Take B6: the IC50 ratio (WT IC50/mutant IC50) was found to be 0.25.

Consider B7, for which the IC50 (n.d. = IC50 of the mutant is 10 nM or more) is over 10 nM.

Regarding B8, the IC50 ratio (WT IC50/mutant IC50) stood at 0.43.

For B9, the IC50 ratio (WT IC50/mutant IC50) was found to be 0.44.

Consider B10, for which the IC50 ratio (WT IC50/mutant IC50) stood at 0.5.

For the molecule B11, the IC50 ratio (WT IC50/mutant IC50) turned out to be 0.72.

As to B12, the IC50 ratio (WT IC50/mutant IC50) worked out at 0.56.

Regarding B13, the IC50 (n.d. = IC50 of the mutant is 10 nM or more) is over 10 nM.

For the molecule B14, the IC50 ratio (WT IC50/mutant IC50) is 0.8.

In the case of B15, the IC50 ratio (WT IC50/mutant IC50) stood at 0.64.

Consider B16, for which the IC50 ratio (WT IC50/mutant IC50) is 0.47.

Molecule B17 registered an IC50 (n.d. = IC50 of the mutant is 10 nM or more) of over 10 nM.

With B18, the IC50 ratio (WT IC50/mutant IC50) turned out to be 0.99.

Consider B19, for which the IC50 ratio (WT IC50/mutant IC50) came to 0.03.

As for B20, the IC50 ratio (WT IC50/mutant IC50) was 0.53.

In turn, B21 showed an IC50 (n.d. = IC50 of the mutant is 10 nM or more) of over 10 nM.

In turn, B22 yielded an IC50 (n.d. = IC50 of the mutant is 10 nM or more) of over 10 nM.

Regarding B23, the IC50 ratio (WT IC50/mutant IC50) amounted to 0.67.

With B24, the IC50 ratio (WT IC50/mutant IC50) stood at 0.07.

In the case of B25, the IC50 ratio (WT IC50/mutant IC50) came to 0.3.

As to B26, the IC50 ratio (WT IC50/mutant IC50) stood at 0.12.

On to B27, for which the IC50 ratio (WT IC50/mutant IC50) turned out to be 1.3.

For B28, the IC50 ratio (WT IC50/mutant IC50) was 0.03.

In turn, B29 came in with an IC50 (n.d. = IC50 of the mutant is 10 nM or more) of over 10 nM.

With B30, the IC50 ratio (WT IC50/mutant IC50) is 1.6.

For B31, the IC50 ratio (WT IC50/mutant IC50) came out at 0.55.

For the molecule B32, the IC50 ratio (WT IC50/mutant IC50) was 0.22.

Take B33: the IC50 ratio (WT IC50/mutant IC50) is 0.55.

For the molecule B34, the IC50 ratio (WT IC50/mutant IC50) was 0.54.

For the molecule B35, the IC50 ratio (WT IC50/mutant IC50) was 0.22.

Turning to B36, the IC50 ratio (WT IC50/mutant IC50) was 0.49.
